Target: T1, His-MyoD (1-320 aa) (UniProt P15172 1-320)
T1 sequence (looked up): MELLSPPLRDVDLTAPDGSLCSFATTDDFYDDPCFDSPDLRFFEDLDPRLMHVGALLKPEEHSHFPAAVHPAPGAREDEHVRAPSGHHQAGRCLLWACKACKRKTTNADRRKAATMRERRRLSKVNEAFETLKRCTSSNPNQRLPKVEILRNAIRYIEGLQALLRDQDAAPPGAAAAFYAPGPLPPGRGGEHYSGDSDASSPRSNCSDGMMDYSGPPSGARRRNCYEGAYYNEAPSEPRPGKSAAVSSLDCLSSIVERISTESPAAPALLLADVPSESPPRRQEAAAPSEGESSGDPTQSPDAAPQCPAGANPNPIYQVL
Experiment: far-Western, overlay or dot blot

- binding result: binds
B1: GST-MLP-a (1-194 aa) (natural protein, human, UniProt P50461-1 1-194, looked up)
chain: MPNWGGGAKCGACEKTVYHAEEIQCNGRSFHKTCFHCMACRKALDSTTVAAHESEIYCKVCYGRRYGPKGIGYGQGAGCLSTDTGEHLGLQFQQSPKPARSVTTSNPSKFTAKFGESEKCPRCGKSVYAAEKVMGGGKPWHKTCFRCAICGKSLESTNVTDKDGELYCKVCYAKNFGPTGIGFGGLTQQVEKKE
